Measurements taken from the supplement of paper PMC10567573.

B1: INTS4 (parent)
chain: TIIEPAGESDNPLRFTSGLVVALD

Variants of: B1
Assay: protein stability index of a GFP-peptide fusion (GPS, HEK-293T) (PSI 1-6); higher = more stable
Conditions: c terminus: a fixed tail appended
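Also: lentivirally expressed fusions sorted by FACS into six bins by GFP to DsRed ratio, PSI derived from sequencing read proportions per bin multiplied by bin number.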

| Variant | protein stability index |
| --- | --- |
| TIIEPAGESDNPLRFTEGLVVALD [S17E] | 3.73 |
| TIIEPAGESDNPLRFTYGLVVALD [S17Y] | 2.15 |
| TIIEPAGESDNFLRFTSGLVVALD [P12F] | 2.41 |
| TIIEPAGESDNHLRFTSGLVVALD [P12H] | 2.61 |
| TIIEPAGESDNALRFTSGLVVALD [P12A] | 2.76 |
| TIIEPAGESDNWLRFTSGLVVALD [P12W] | 2.14 |
| TIIEPAGESDNSLRFTSGLVVALD [P12S] | 3.13 |
| TIIEPAGESDNPGRFTSGLVVALD [L13G] | 3.14 |
| TIIEPAGESDNPPRFTSGLVVALD [L13P] | 3.6 |
| TIIEPAGESDNPWRFTSGLVVALD [L13W] | 3.14 |
| TIIEPAGEIDNPLRFTSGLVVALD [S9I] | 2.78 |
| TIIEPAGENDNPLRFTSGLVVALD [S9N] | 3.25 |
| TIIEPAGEFDNPLRFTSGLVVALD [S9F] | 2.65 |
| TIIEPAGEGDNPLRFTSGLVVALD [S9G] | 2.75 |
| TIREPAGESDNPLRFTSGLVVALD [I3R] | 3.06 |
| TIWEPAGESDNPLRFTSGLVVALD [I3W] | 2.88 |
| TIDEPAGESDNPLRFTSGLVVALD [I3D] | 4.07 |
| TIAEPAGESDNPLRFTSGLVVALD [I3A] | 4.03 |
| TIYEPAGESDNPLRFTSGLVVALD [I3Y] | 3.29 |
| TIHEPAGESDNPLRFTSGLVVALD [I3H] | 3.9 |
| TIIEPAGESDAPLRFTSGLVVALD [N11A] | 3.13 |
| TIIEPAGESDPPLRFTSGLVVALD [N11P] | 2.27 |
| TIIEPAGESDNPLRFTSGLVVAAD [L23A] | 4.1 |
| TIIEPAGESDNPLRFTSGLVVAPD [L23P] | 4.17 |

| Variant | protein stability index |
| --- | --- |
| TIIEPAGESDNPLRFTSGLLVALD [V20L] | 2.53 |
| TIIEPAGESDNPLRFTSGLAVALD [V20A] | 2.95 |
| TIIEPAGESDNPLRFTSGLKVALD [V20K] | 3.75 |
| TIIEPAGESDNPLRFTSGLNVALD [V20N] | 3.46 |
| TIIEPAGESDNPLRFTSGLSVALD [V20S] | 3.77 |
| TIIEPAGESDNPLRFTSGLCVALD [V20C] | 3.38 |
| TIIEPAGWSDNPLRFTSGLVVALD [E8W] | 1.5 |
| TIIEPAGCSDNPLRFTSGLVVALD [E8C] | 2.2 |
| TIIEPAMESDNPLRFTSGLVVALD [G7M] | 2.36 |
| TIIEPAEESDNPLRFTSGLVVALD [G7E] | 3.82 |
| TIIEPASESDNPLRFTSGLVVALD [G7S] | 2.9 |
| TIIEPAGESDNPLRFTSGLVVALC [D24C] | 1.35 |
| TIIEPAGESDNPLRFTSGLVVALI [D24I] | 1.33 |
| TIIEPAGESDNPLRFTSGLVVALT [D24T] | 2.2 |
| TIIEPLGESDNPLRFTSGLVVALD [A6L] | 2.2 |
| TIIEPRGESDNPLRFTSGLVVALD [A6R] | 3.07 |
| TIIEPNGESDNPLRFTSGLVVALD [A6N] | 2.52 |
| TIIEPAGESDNPLRFTSGLVMALD [V21M] | 2.84 |
| TIIEPAGESDNPLRFTSGLVQALD [V21Q] | 3.71 |
| TIIEPAGESDNPLRFTSGLVFALD [V21F] | 2.37 |
| TIIEPAGESDNPLRFTSGLVGALD [V21G] | 3.65 |
| TIIEPAGESDNPLRFTSGLVPALD [V21P] | 3.93 |
| TIIEPAGESDNPLRFYSGLVVALD [T16Y] | 1.74 |
| TIIEPAGESDNPLRFLSGLVVALD [T16L] | 1.99 |

| Variant | protein stability index |
| --- | --- |
| TIIEPAGESDNPLRFRSGLVVALD [T16R] | 3.35 |
| TIIEPAGESDNPLRFFSGLVVALD [T16F] | 2.35 |
| TIIEPAGESDNPLMFTSGLVVALD [R14M] | 2.27 |
| TIIEPAGESDNPLNFTSGLVVALD [R14N] | 3.95 |
| TIIEPAGESDNPLCFTSGLVVALD [R14C] | 2.62 |
| TIIEPAGESDNPLKFTSGLVVALD [R14K] | 2.77 |
| TIIEPAGESDNPLAFTSGLVVALD [R14A] | 3.63 |
| TIIECAGESDNPLRFTSGLVVALD [P5C] | 2.56 |
| TIIENAGESDNPLRFTSGLVVALD [P5N] | 2.91 |
| TIIEEAGESDNPLRFTSGLVVALD [P5E] | 3.31 |
| TIIEIAGESDNPLRFTSGLVVALD [P5I] | 1.5 |
| TIIEPAGESDNPLRFTSGYVVALD [L19Y] | 2.62 |
| TIIEPAGESDNPLRFTSGHVVALD [L19H] | 3.59 |
| TIIEPAGESDNPLRFTSGVVVALD [L19V] | 3.33 |
| TIIEPAGESDNPLRETSGLVVALD [F15E] | 4.63 |
| TIIEPAGESDNPLRVTSGLVVALD [F15V] | 3.97 |
| TIIEPAGESDNPLRRTSGLVVALD [F15R] | 3.92 |
| TIIEPAGESDNPLRGTSGLVVALD [F15G] | 4.03 |
| TIIEPAGESDNPLRYTSGLVVALD [F15Y] | 2.87 |
| TIIEPAGESDNPLRHTSGLVVALD [F15H] | 4.37 |
| TIIEPAGESDNPLRPTSGLVVALD [F15P] | 3.9 |
| TIIEPAGESDNPLRTTSGLVVALD [F15T] | 4.3 |
| LIIEPAGESDNPLRFTSGLVVALD [T1L] | 1.83 |
| PIIEPAGESDNPLRFTSGLVVALD [T1P] | 3.06 |

| Variant | protein stability index |
| --- | --- |
| DIIEPAGESDNPLRFTSGLVVALD [T1D] | 3.21 |
| HIIEPAGESDNPLRFTSGLVVALD [T1H] | 3.23 |
| EIIEPAGESDNPLRFTSGLVVALD [T1E] | 2.68 |
| FIIEPAGESDNPLRFTSGLVVALD [T1F] | 1.83 |
| WIIEPAGESDNPLRFTSGLVVALD [T1W] | 2.23 |
| TIIYPAGESDNPLRFTSGLVVALD [E4Y] | 1.51 |
| TIIRPAGESDNPLRFTSGLVVALD [E4R] | 2.94 |
| TIIHPAGESDNPLRFTSGLVVALD [E4H] | 2.55 |
| TIINPAGESDNPLRFTSGLVVALD [E4N] | 2.09 |
| TDIEPAGESDNPLRFTSGLVVALD [I2D] | 4.21 |
| TEIEPAGESDNPLRFTSGLVVALD [I2E] | 3.86 |
| TMIEPAGESDNPLRFTSGLVVALD [I2M] | 3.38 |
| TIIEPAGESDNPLRFTSGLVVLLD [A22L] | 1.73 |
| TIIEPAGESDNPLRFTSYLVVALD [G18Y] | 1.89 |
| TIIEPAGESDNPLRFTSQLVVALD [G18Q] | 2.7 |
| TIIEPAGESDNPLRFTSNLVVALD [G18N] | 2.99 |
| TIIEPAGESDNPLRFTSSLVVALD [G18S] | 2.83 |
| TIIEPAGESQNPLRFTSGLVVALD [D10Q] | 2.49 |
| TIIEPAGESTNPLRFTSGLVVALD [D10T] | 2.63 |
| TIIEPAGESYNPLRFTSGLVVALD [D10Y] | 1.89 |
| TIIEPAGESINPLRFTSGLVVALD [D10I] | 2.08 |
| TIIEPAGESHNPLRFTSGLVVALD [D10H] | 2.75 |
